Starred links: 1 amine or outer side, 2 acyl side, 3 side chain; linkers in the order of their positions; H or OH if unused. Non-standard residues stand in square brackets, D forms with d. Groups on a side chain read outwards from the residue. No end group written: not given here. *: point of attachment. C18 diacid = O=C(O)CCCCCCCCCCCCCCCCC(=O)*; γGlu = O=C(O)[C@H](CCC(=O)[*:2])N[*:1]; αMeF = C[C@](N)(Cc1ccccc1)C(=O)O; AEEA = NCCOCCOCC(=O)O; Aib = CC(C)(N)C(=O)O
What was measured:
[1] = biological target: human GLP-1 receptor (human, UniProt P43220); test: cell-based or functional assay
[2] = biological target: human glucagon receptor (human, UniProt P47871); test: cell-based or functional assay

cAMP production, hGLP-1R EC50 (pM) [1] [pM]	cAMP production, hGluc-R EC50 (pM) [2] [pM]	Binder
45.2	509	H[Aib]QGTFTSDVSK[αMeF]LDSK([γGlu-γGlu-AEEA-AEEA-γGlu-γGlu-C18 diacid])RARDFVRWLLE[Aib]G-OH (N-terminus assumed; SMILES CC(C)C[C@H](NC(=O)[C@H](Cc1c[nH]c2ccccc12)NC(=O)[C@H](CCCNC(=N)N)NC(=O)[C@@H](NC(=O)[C@H](Cc1ccccc1)NC(=O)[C@H](CC(=O)O)NC(=O)[C@H](CCCNC(=N)N)NC(=O)[C@H](C)NC(=O)[C@H](CCCNC(=N)N)NC(=O)[C@H](CCCCNC(=O)CC[C@H](NC(=O)CC[C@H](NC(=O)COCCOCCNC(=O)COCCOCCNC(=O)CC[C@H](NC(=O)CC[C@H](NC(=O)CCCCCCCCCCCCCCCCC(=O)O)C(=O)O)C(=O)O)C(=O)O)C(=O)O)NC(=O)[C@H](CO)NC(=O)[C@H](CC(=O)O)NC(=O)[C@H](CC(C)C)NC(=O)[C@](C)(Cc1ccccc1)NC(=O)[C@H](CCCCN)NC(=O)[C@H](CO)NC(=O)[C@@H](NC(=O)[C@H](CC(=O)O)NC(=O)[C@H](CO)NC(=O)[C@@H](NC(=O)[C@H](Cc1ccccc1)NC(=O)[C@@H](NC(=O)CNC(=O)[C@H](CCC(N)=O)NC(=O)C(C)(C)NC(=O)[C@@H](N)Cc1c[nH]cn1)[C@@H](C)O)[C@@H](C)O)C(C)C)C(C)C)C(=O)N[C@@H](CC(C)C)C(=O)N[C@@H](CCC(=O)O)C(=O)NC(C)(C)C(=O)NCC(=O)O) [Peptide 136]
665	8190	H[Aib]QGTFTSDVSK[αMeF]LDSK([AEEA-AEEA-γGlu-C18 diacid])RAQDFVQ[Aib]LVAT-OH (N-terminus assumed; SMILES CC(C)C[C@H](NC(=O)C(C)(C)NC(=O)[C@H](CCC(N)=O)NC(=O)[C@@H](NC(=O)[C@H](Cc1ccccc1)NC(=O)[C@H](CC(=O)O)NC(=O)[C@H](CCC(N)=O)NC(=O)[C@H](C)NC(=O)[C@H](CCCNC(=N)N)NC(=O)[C@H](CCCCNC(=O)COCCOCCNC(=O)COCCOCCNC(=O)CC[C@H](NC(=O)CCCCCCCCCCCCCCCCC(=O)O)C(=O)O)NC(=O)[C@H](CO)NC(=O)[C@H](CC(=O)O)NC(=O)[C@H](CC(C)C)NC(=O)[C@](C)(Cc1ccccc1)NC(=O)[C@H](CCCCN)NC(=O)[C@H](CO)NC(=O)[C@@H](NC(=O)[C@H](CC(=O)O)NC(=O)[C@H](CO)NC(=O)[C@@H](NC(=O)[C@H](Cc1ccccc1)NC(=O)[C@@H](NC(=O)CNC(=O)[C@H](CCC(N)=O)NC(=O)C(C)(C)NC(=O)[C@@H](N)Cc1c[nH]cn1)[C@@H](C)O)[C@@H](C)O)C(C)C)C(C)C)C(=O)N[C@H](C(=O)N[C@@H](C)C(=O)N[C@H](C(=O)O)[C@@H](C)O)C(C)C) [Peptide 42]
143	268	H[Aib]QGTFTSDVSK[αMeF]LDSK([γGlu-γGlu-AEEA-AEEA-γGlu-γGlu-C18 diacid])RAQDFVRWLLEG[Aib]-OH (N-terminus assumed; SMILES CC(C)C[C@H](NC(=O)[C@H](CC(C)C)NC(=O)[C@H](Cc1c[nH]c2ccccc12)NC(=O)[C@H](CCCNC(=N)N)NC(=O)[C@@H](NC(=O)[C@H](Cc1ccccc1)NC(=O)[C@H](CC(=O)O)NC(=O)[C@H](CCC(N)=O)NC(=O)[C@H](C)NC(=O)[C@H](CCCNC(=N)N)NC(=O)[C@H](CCCCNC(=O)CC[C@H](NC(=O)CC[C@H](NC(=O)COCCOCCNC(=O)COCCOCCNC(=O)CC[C@H](NC(=O)CC[C@H](NC(=O)CCCCCCCCCCCCCCCCC(=O)O)C(=O)O)C(=O)O)C(=O)O)C(=O)O)NC(=O)[C@H](CO)NC(=O)[C@H](CC(=O)O)NC(=O)[C@H](CC(C)C)NC(=O)[C@](C)(Cc1ccccc1)NC(=O)[C@H](CCCCN)NC(=O)[C@H](CO)NC(=O)[C@@H](NC(=O)[C@H](CC(=O)O)NC(=O)[C@H](CO)NC(=O)[C@@H](NC(=O)[C@H](Cc1ccccc1)NC(=O)[C@@H](NC(=O)CNC(=O)[C@H](CCC(N)=O)NC(=O)C(C)(C)NC(=O)[C@@H](N)Cc1c[nH]cn1)[C@@H](C)O)[C@@H](C)O)C(C)C)C(C)C)C(=O)N[C@@H](CCC(=O)O)C(=O)NCC(=O)NC(C)(C)C(=O)O) [Peptide 137]
29.9	123	H[Aib]QGTFTSDVSK[αMeF]LDSK([AEEA-AEEA-γGlu-C18 diacid])RAQDFVQWLL[Aib]T-OH (N-terminus assumed; SMILES CC(C)C[C@H](NC(=O)[C@H](Cc1c[nH]c2ccccc12)NC(=O)[C@H](CCC(N)=O)NC(=O)[C@@H](NC(=O)[C@H](Cc1ccccc1)NC(=O)[C@H](CC(=O)O)NC(=O)[C@H](CCC(N)=O)NC(=O)[C@H](C)NC(=O)[C@H](CCCNC(=N)N)NC(=O)[C@H](CCCCNC(=O)COCCOCCNC(=O)COCCOCCNC(=O)CC[C@H](NC(=O)CCCCCCCCCCCCCCCCC(=O)O)C(=O)O)NC(=O)[C@H](CO)NC(=O)[C@H](CC(=O)O)NC(=O)[C@H](CC(C)C)NC(=O)[C@](C)(Cc1ccccc1)NC(=O)[C@H](CCCCN)NC(=O)[C@H](CO)NC(=O)[C@@H](NC(=O)[C@H](CC(=O)O)NC(=O)[C@H](CO)NC(=O)[C@@H](NC(=O)[C@H](Cc1ccccc1)NC(=O)[C@@H](NC(=O)CNC(=O)[C@H](CCC(N)=O)NC(=O)C(C)(C)NC(=O)[C@@H](N)Cc1c[nH]cn1)[C@@H](C)O)[C@@H](C)O)C(C)C)C(C)C)C(=O)N[C@@H](CC(C)C)C(=O)NC(C)(C)C(=O)N[C@H](C(=O)O)[C@@H](C)O) [Peptide 40]
69	149	HSQGS[αMeF]TSDVSK[αMeF]LDSK([γGlu-C18 diacid])AAQDFVQWIANT-NH2 (N-terminus assumed; SMILES CC[C@H](C)[C@H](NC(=O)[C@H](Cc1c[nH]c2ccccc12)NC(=O)[C@H](CCC(N)=O)NC(=O)[C@@H](NC(=O)[C@H](Cc1ccccc1)NC(=O)[C@H](CC(=O)O)NC(=O)[C@H](CCC(N)=O)NC(=O)[C@H](C)NC(=O)[C@H](C)NC(=O)[C@H](CCCCNC(=O)CC[C@H](NC(=O)CCCCCCCCCCCCCCCCC(=O)O)C(=O)O)NC(=O)[C@H](CO)NC(=O)[C@H](CC(=O)O)NC(=O)[C@H](CC(C)C)NC(=O)[C@](C)(Cc1ccccc1)NC(=O)[C@H](CCCCN)NC(=O)[C@H](CO)NC(=O)[C@@H](NC(=O)[C@H](CC(=O)O)NC(=O)[C@H](CO)NC(=O)[C@@H](NC(=O)[C@](C)(Cc1ccccc1)NC(=O)[C@H](CO)NC(=O)CNC(=O)[C@H](CCC(N)=O)NC(=O)[C@H](CO)NC(=O)[C@@H](N)Cc1c[nH]cn1)[C@@H](C)O)C(C)C)C(C)C)C(=O)N[C@@H](C)C(=O)N[C@@H](CC(N)=O)C(=O)N[C@H](C(N)=O)[C@@H](C)O) [Peptide 3]

Source: patent US12630600B2 (MEDIMMUNE LIMITED, priority 2022, dated 2026)
